Data from patent US20140294819A1 (NVIP, published 2014).

T1: human CD20 cyclic (oxidised) peptide SEQ ID NO:3 (human, disulphide bond between the two cysteine residues; biotinylated)
T1 construct: also called H20; human CD20 cyclic peptide
T1 peptide: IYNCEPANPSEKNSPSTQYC

T2: canine CD20 cyclic (oxidised, disulphide-bonded) peptide SEQ ID NO:2 (canine, disulphide bond between the two cysteine residues (corresponding to positions 167 and 183); N-terminal biotin in the streptavidin-plate assays)
T2 construct: Chemically synthesised and oxidised; also called C20; caCD20 peptide
T2 peptide: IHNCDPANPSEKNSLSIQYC

T3: feline CD20 cyclised peptide SEQ ID NO:4 (feline, cyclised by a disulphide bond between the two cysteine residues)
T3 construct: also called feline CD20 peptide
T3 peptide: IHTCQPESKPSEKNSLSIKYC

T4: murine CD20 cyclic (oxidised) peptide SEQ ID NO:6 (murine, disulphide bond between the two cysteine residues; biotinylated)
T4 construct: also called M20; mouse CD20 peptide
T4 peptide: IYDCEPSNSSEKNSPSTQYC


How the values were obtained:
[1] = molecular target: T1, human CD20 cyclic (oxidised) peptide …; assay: ELISA, purified antibody on cyclic CD20 peptide
Protocol: (§1) The purified antibodies shown in FIG. 15 were tested for binding to cyclic CD20 peptides from different species by ELISA as above.

[2] = molecular target: T2, canine CD20 cyclic (oxidised, …); assay: ELISA, purified antibody on cyclic CD20 peptide
Protocol: as §1

[3] = molecular target: T3, feline CD20 cyclised peptide SEQ ID NO:4; assay: ELISA, purified antibody on cyclic CD20 peptide
Protocol: as §1

[4] = molecular target: T4, murine CD20 cyclic (oxidised) peptide …; assay: ELISA, purified antibody on cyclic CD20 peptide
Protocol: as §1

[5] = molecular target: T1, human CD20 cyclic (oxidised) peptide …; assay: ELISA on cyclised CD20 peptide
[6] = molecular target: T3, feline CD20 cyclised peptide SEQ ID NO:4; assay: ELISA on cyclised CD20 peptide
[7] = molecular target: T4, murine CD20 cyclic (oxidised) peptide …; assay: ELISA on cyclised CD20 peptide

binding result [1]	binding result [2]	binding result [3]	binding result [4]	binding result [5]	binding result [6]	binding result [7]	Binder
binds	binds	binds	binds				caninised RA2, HCB isotype (antibody, also called caRA2-B) heavy: EVQLVQSGGGLVKPTESLTISCVVSGFSLTNYGVHWVRQSPGKGLEWLGVIWSGGTTDYNAAFISRLSISKDNSKSTVFLRMNSLRADDTAIYYCARGPRKFYYYGMDYWGQGTSVTVSSASTTAPSVFPLAPSCGSTSGSTVALACLVSGYFPEPVTVSWNSGSLTSGVHTFPSVLQSSGLYSLSSMVTVPSSRWPSETFTCNVAHPASKTKVDKPVPKRENGRVPRPPDCPKCPAPEMLGGPSVFIFPPKPKDTLLIARTPEVTCVVVDLDPEDPEVQISWFVDGKQMQTAKTQPREEQFNGTYRVVSVLPIGHQDWLKGKQFTCKVNNKALPSPIERTISKARGQAHQPSVYVLPPSREELSKNTVSLTCLIKDFFPPDIDVEWQSNGQQEPESKYRTTPPQLDEDGSYFLYSKLSVDKSRWQRGDTFICAVMHEALHNHYTQESLSHSPGK light: DIVMTQTPLSLSVSQEEEASISCRSSQSIVHSNGNTYLEWYLQKPGQSPKLLIYKVSNRFSGVPDRFSGSGSGTDFTLKISRVEAGDAGVYYCFQGLHVPLTFGAGTKLELKRNDAQPAVYLFQPSPDQLHTGSASVVCLLNSFYPKDINVKWKVDGVIQDTGIQESVTEQDKDSTYSLSSTLTMSSTEYLSHELYSCEITHKSLPSTLIKSFQRSECQRVD
binds	binds	binds	binds				chimeric mouse-canine RA2, HCB isotype (antibody, also called chiRA2-B; chimeric RA2) heavy: QVQLKQSGPGLVPPSQSLSITCTVSGFSLTNYGVHWVRQSPGKGLEWLGVIWSGGTTDYNAAFISRLSISKDNSKSQVFFKMNSLQADDTAIYYCARGPRKFYYYGMDYWGQGTSVTVSSASTTAPSVFPLAPSCGSTSGSTVALACLVSGYFPEPVTVSWNSGSLTSGVHTFPSVLQSSGLYSLSSMVTVPSSRWPSETFTCNVAHPASKTKVDKPVPKRENGRVPRPPDCPKCPAPEMLGGPSVFIFPPKPKDTLLIARTPEVTCVVVDLDPEDPEVQISWFVDGKQMQTAKTQPREEQFNGTYRVVSVLPIGHQDWLKGKQFTCKVNNKALPSPIERTISKARGQAHQPSVYVLPPSREELSKNTVSLTCLIKDFFPPDIDVEWQSNGQQEPESKYRTTPPQLDEDGSYFLYSKLSVDKSRWQRGDTFICAVMHEALHNHYTQESLSHSPGK light: DVLMTQTPLSLPVSLGDQASISCRSSQSIVHSNGNTYLEWYLQKPGQSPKLLIYKVSNRFSGVPDRFSGSGSGTDFTLKISRVEAGDLGVYYCFQGLHVPLTFGAGTRLELKRNDAQPAVYLFQPSPDQLHTGSASVVCLLNSFYPKDINVKWKVDGVIQDTGIQESVTEQDKDSTYSLSSTLTMSSTEYLSHELYSCEITHKSLPSTLIKSFQRSECQRVD
binds	binds	binds	binds				caninised RA2, HCC isotype (antibody, See note of m19; also called caRA2-C) heavy: EVQLVQSGGGLVKPTESLTISCVVSGFSLTNYGVHWVRQSPGKGLEWLGVIWSGGTTDYNAAFISRLSISKDNSKSTVFLRMNSLRADDTAIYYCARGPRKFYYYGMDYWGQGTSVTVSSASTTAPSVFPLAPSCGSQSGSTVALACLVSGYIPEPVTVSWNSVSLTSGVHTFPSVLQSSGLYSLSSMVTVPSSRWPSETFTCNVAHPATNTKVDKPVAKECECKCNCNNCPCPGCGLLGGPSVFIFPPKPKDILVTARTPTVTCVVVDLDPENPEVQISWFVDSKQVQTANTQPREEQSNGTYRVVSVLPIGHQDWLSGKQFKCKVNNKALPSPIEEIISKTPGQAHQPNVYVLPPSRDEMSKNTVTLTCLVKDFFPPEIDVEWQSNGQQEPESKYRMTPPQLDEDGSYFLYSKLSVDKSRWQRGDTFICAVMHEALHNHYTQISLSHSPGK light: DIVMTQTPLSLSVSQEEEASISCRSSQSIVHSNGNTYLEWYLQKPGQSPKLLIYKVSNRFSGVPDRFSGSGSGTDFTLKISRVEAGDAGVYYCFQGLHVPLTFGAGTKLELKRNDAQPAVYLFQPSPDQLHTGSASVVCLLNSFYPKDINVKWKVDGVIQDTGIQESVTEQDKDSTYSLSSTLTMSSTEYLSHELYSCEITHKSLPSTLIKSFQRSECQRVD
	binds			binds	binds	binds	caninised RF2, HCB isotype (antibody, also called caRF2-B) heavy: EVQLVQSGGGLVKPTESLTISCVISGFSLTSYGVHWVRQSPGKGLEWLGVIWSGGSIDYNAAFISRLSISKDNSKSTVFIRMNSLRADDTAIYYCARGPRKFYYFGMDYWGQGTSVTVSSASTTAPSVFPLAPSCGSTSGSTVALACLVSGYFPEPVTVSWNSGSLTSGVHTFPSVLQSSGLYSLSSMVTVPSSRWPSETFTCNVAHPASKTKVDKPVPKRENGRVPRPPDCPKCPAPEMLGGPSVFIFPPKPKDTLLIARTPEVTCVVVDLDPEDPEVQISWFVDGKQMQTAKTQPREEQFNGTYRVVSVLPIGHQDWLKGKQFTCKVNNKALPSPIERTISKARGQAHQPSVYVLPPSREELSKNTVSLTCLIKDFFPPDIDVEWQSNGQQEPESKYRTTPPQLDEDGSYFLYSKLSVDKSRWQRGDTFICAVMHEALHNHYTQESLSHSPGK light: DIVMTQTPLSLSVSQEEEASISCRSSQNIVHSNGNTYVEWYLQKPGQSPKLLIYKVSNRFSGVPDRFSGSGSGTDFTLKISRVEAEDAGVYYCFQGSHVPLTFGAGTKLELKRNDAQPAVYLFQPSPDQLHTGSASVVCLLNSFYPKDINVKWKVDGVIQDTGIQESVTEQDKDSTYSLSSTLTMSSTEYLSHELYSCEITHKSLPSTLIKSFQRSECQRVD
binds	binds	binds	binds				chimeric mouse-canine RF2, HCB isotype (antibody, also called chiRF2-B; chimeric RF2) heavy: QVQLKQSGPGLVPPSQSLSITCTISGFSLTSYGVHWVRQSPGWGLEWLGVIWSGGSIDYNAAFISRLSISKDNSKSQVFIKMNSLQADDTAIYYCARGPRKFYYFGMDYWGQGTSVTVSSASTTAPSVFPLAPSCGSTSGSTVALACLVSGYFPEPVTVSWNSGSLTSGVHTFPSVLQSSGLYSLSSMVTVPSSRWPSETFTCNVAHPASKTKVDKPVPKRENGRVPRPPDCPKCPAPEMLGGPSVFIFPPKPKDTLLIARTPEVTCVVVDLDPEDPEVQISWFVDGKQMQTAKTQPREEQFNGTYRVVSVLPIGHQDWLKGKQFTCKVNNKALPSPIERTISKARGQAHQPSVYVLPPSREELSKNTVSLTCLIKDFFPPDIDVEWQSNGQQEPESKYRTTPPQLDEDGSYFLYSKLSVDKSRWQRGDTFICAVMHEALHNHYTQESLSHSPGK light: DVVMTQTPLSLPVSLGDQASISCRSSQNIVHSNGNTYVEWYLQKPGQSPKLLIYKVSNRFSGVPDRFSGSGSGTDFTLKISRVEAEDLGVYYCFQGSHVPLTFGAGTKLELKRNDAQPAVYLFQPSPDQLHTGSASVVCLLNSFYPKDINVKWKVDGVIQDTGIQESVTEQDKDSTYSLSSTLTMSSTEYLSHELYSCEITHKSLPSTLIKSFQRSECQRVD
